The values below come from publication PMC7851853.

Where only a bound is given, the exact number is not on record here.

Experiment [1] addresses actin filaments grown from rabbit skeletal muscle actin (unlabeled ADP-F-actin) (rabbit) (UniProt P68135). Put plainly: single-molecule TIRF microscopy.
Experiment [2] shares this target. Put plainly: TIRF microscopy with microfluidics.

For the substance “mNeonGreen–Tpm1.8 (tropomyosin isoform Tpm1.8 fused at its N-terminus to an alanine–serine extension and to mNeonGreen) (natural protein)”, in experiment [1], the Kd of an isolated Tpm1.8 molecule on the actin filament (RI/BI) turned out to be 500 µM; the RI, rate of release of an isolated Tpm from the actin filament (length) was over 4.13e-08 m⋅s^-1; the RI, rate of release of an isolated Tpm from the actin filament (molecules) is over 1.25 s⁻¹; the half-life of the complex of an isolated Tpm1.8 molecule and the actin filament is under 0.6 s. For the same substance, in experiment [2], the BB, rate constant of binding to the domain edge at the barbed end (length) is 1.19 m⋅M^-1⋅s^-1; the BBP, combined binding rate constant at both domain edges (length) stood at 1.83 m⋅M^-1⋅s^-1; the BBP, combined binding rate constant at both domain edges (molecules) turned out to be 5.6e+07 M^-1⋅s^-1; the BP, rate constant of binding to the domain edge at the pointed end (length) stood at 0.64 m⋅M^-1⋅s^-1. Moreover, in experiment [2], the RB, rate of release from the domain edge at the barbed end (length) came out at 1.98e-09 m⋅s^-1; the RB, rate of release from the domain edge at the barbed end (molecules) came to 0.061 s⁻¹; the RBP, combined release rate at both domain edges (length) amounted to 3.05e-09 m⋅s^-1; the RBP, combined release rate at both domain edges (molecules) stood at 0.094 s⁻¹. In experiment [2], this substance showed an RP, rate of release from the domain edge at the pointed end (length) of 1.07e-09 m⋅s^-1; an RP, rate of release from the domain edge at the pointed end (molecules) of 0.033 s⁻¹; a critical concentration for elongation (affinity at the domain edge) of 1.65 nM; a half-life of a molecule bound at the domain edge at the barbed end of 11 s. In experiment [2], this substance returned a half-life of a molecule bound at the domain edge at the pointed end of 21 s.
